One assay concerns GCGR with RAMP2. Particulars: GCGR coexpressed with RAMP2; ref [13]; cited from earlier work.
The target in another assay is GLP-1R–Nluc (human) (UniProt P43220).
In assay [1] the target is T1, Nluc–GLP-1R (Homo sapiens, UniProt P43220).
Another assay deals with GIPR. The conditions noted are these: Min6 B1, 8-min stimulation, n = 4.
The test system of the next assay is Min6 B1 cells. The experiment in a line: Insulin secretion in siRNA-treated Min6 B1 cells. Particulars: 10 nM and 1 nM agonist, n = 4.
In assay [2] the test system is INS-1 832/3 cells. The conditions noted are these: 10 nM GIP, […] glucose.
Assay [3] has as its system INS-1 832/3 cells. The experiment in a line: Glucose-stimulated insulin secretion in INS-1 832/3 cells, GLP-1R agonists. The format is cell-based, rat. The conditions noted are these: 10 nM GLP-1; for effect of inhibitor on GLP-1-mediated insulin secretion: vector- and RAMP3-transfected, 30 min pretreatment, normalized to 10 nM GLP-1 + 0.1% DMSO.
Another assay has as its system CLR–RAMP1. The conditions noted are these: ref [43]; cited from earlier work. From the text: As RAMP3 expression varies between tissues, it is possible that by directly targeting this complex, tissue-specific receptor activation could be facilitated. […] Agonists that have reduced affinity for the RAMP3 complex over the receptor alone ...
The conditions of assay [4]: ref [3]; cited from earlier work. From the text: The incretin effect, whereby oral glucose elevates plasma insulin levels to a greater degree than intravenous administration, was first observed in 1964 ([1]). This is mediated by incretin hormones, the best known of which are GLP-1 and the glucose-dependent insulinotropic polypeptide (GIP). […] However, newer m ...
The target in assay [5] is T1, Nluc–GLP-1R. The format is cell-based. Details: signal peptide of murine serotonin 5-HT3R (sig) (N); expressed in transfected cells; host or cells: HEK293T. Particulars: HEK293T; over the concentration range tested.
Assay [6] has as its target T1, Nluc–GLP-1R. Format: cell-based. Particulars: HEK293T, absence of RAMP3. Further details: signal peptide of murine serotonin 5-HT3R (sig) (N); expressed in transfected cells; host or cells: HEK293T.

Entries after “also recorded” stand apart in the source; their conditions may differ. Numbered stars: 1 amine (or outer) side, 2 acyl side, 3 side chain; on linkers, the order of the positions; unused ones are H or OH. Bridge positions count the residues as written; N and C are the ends. Square brackets hold non-standard residues; d marks the D form. Peptide text beside a SMILES is read from it. X1 = CC(=O)NC(C(=O)OC(C(C)C)C(N[*:1])C(=O)[*:2])C(O)C(C)C; PhLac = O=C(O)[CH](O)Cc1ccccc1; NMeT = CN[CH](C(=O)O)[CH](C)O; NMeA = CN[CH](C)C(=O)O; NMeDha = C=C(NC)C(=O)O

Sequence of GLP-1R–Nluc (human) (P43220 24-463): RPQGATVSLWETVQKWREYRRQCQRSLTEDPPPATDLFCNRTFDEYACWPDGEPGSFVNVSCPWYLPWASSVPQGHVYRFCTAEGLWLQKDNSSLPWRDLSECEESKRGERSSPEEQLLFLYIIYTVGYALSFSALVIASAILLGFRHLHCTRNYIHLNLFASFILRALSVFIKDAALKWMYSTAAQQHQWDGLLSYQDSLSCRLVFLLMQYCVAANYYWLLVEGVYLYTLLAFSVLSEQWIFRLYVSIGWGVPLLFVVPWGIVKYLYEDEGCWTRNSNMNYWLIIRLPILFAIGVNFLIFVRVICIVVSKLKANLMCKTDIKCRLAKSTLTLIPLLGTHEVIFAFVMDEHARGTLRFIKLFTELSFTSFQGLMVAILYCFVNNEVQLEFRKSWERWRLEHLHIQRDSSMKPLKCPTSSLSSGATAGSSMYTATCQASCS
T1 sequence (P43220 24-463): as above

Turning to glucagon: agonist of GCGR (cited), in the assay with GCGR with RAMP2, the “effect of RAMP2 on Gαs coupling/response at GCGR” value is given as “increasing Gαs coupling”.

In the case of liraglutide (peptide), in the assay with GLP-1R–Nluc (human), the internalization (loss of BRET with RIT-Venus), HEK293T, + 2xFLAG-RAMP3; pEC50 came out at 7.6 pEC50; the internalization (loss of BRET with RIT-Venus), HEK293T, + FLAG-RAMP3; pEC50 came to 8.2 pEC50; the internalization (loss of BRET with RIT-Venus), HEK293T, receptor alone; pEC50 was 8.5 pEC50; the β-arrestin1–YFP recruitment (BRET), HEK293T, + 2xFLAG-RAMP3; pEC50 amounted to 7.5 pEC50. Further, in the assay with GLP-1R–Nluc (human), the β-arrestin1–YFP recruitment (BRET), HEK293T, + FLAG-RAMP3; pEC50 came out at 7.1 pEC50; the β-arrestin1–YFP recruitment (BRET), HEK293T, receptor alone; pEC50 worked out at 7 pEC50; the β-arrestin2–YFP recruitment (BRET), HEK293T, + 2xFLAG-RAMP3; pEC50 is 7.5 pEC50; the β-arrestin2–YFP recruitment (BRET), HEK293T, + FLAG-RAMP3; pEC50 came out at 7.1 pEC50. The molecule also gave a β-arrestin2–YFP recruitment (BRET), HEK293T, receptor alone; pEC50 with GLP-1R–Nluc (human) of 7.3 pEC50. Further, in the assay with Nluc–GLP-1R [1], the Ca^2+ mobilization, HEK293T, + 2xFLAG-RAMP3; pEC50 was 7.5 pEC50; the Ca^2+ mobilization, HEK293T, + FLAG-RAMP3; pEC50 was determined as 7.4 pEC50; the Ca^2+ mobilization, HEK293T, receptor alone; pEC50 amounted to 7.5 pEC50; the cAMP accumulation, 8-min stimulation, HEK293T, + 2xFLAG-RAMP3; pEC50 amounted to 9.9 pEC50. Moreover, in the assay with Nluc–GLP-1R [1], the cAMP accumulation, 8-min stimulation, HEK293T, + FLAG-RAMP3; pEC50 came to 10.3 pEC50; the cAMP accumulation, 30-min stimulation, HEK293T, + 2xFLAG-RAMP3; pEC50 worked out at 10.1 pEC50; the cAMP accumulation, 30-min stimulation, HEK293T, + FLAG-RAMP3; pEC50 turned out to be 10.3 pEC50; the cAMP accumulation, 30-min stimulation, HEK293T, receptor alone; pEC50 turned out to be 10.4 pEC50.

As to “exendin-4 (from UniProt P26349 48-87) (peptide)”, in the assay with Nluc–GLP-1R [1], the Ca^2+ mobilization, HEK293T, + 2xFLAG-RAMP3; pEC50 was 8.6 pEC50; the Ca^2+ mobilization, HEK293T, receptor alone; pEC50 was 6.9 pEC50; the cAMP accumulation, 8-min stimulation, HEK293T, + 2xFLAG-RAMP3; pEC50 was determined as 11.3 pEC50; the cAMP accumulation, 8-min stimulation, HEK293T, + FLAG-RAMP3; pEC50 amounted to 11.6 pEC50. In the assay with Nluc–GLP-1R [1], the cAMP accumulation, 8-min stimulation, HEK293T, receptor alone; pEC50 turned out to be 11.7 pEC50; the cAMP accumulation, 30-min stimulation, HEK293T, + 2xFLAG-RAMP3; pEC50 is 12.4 pEC50; the cAMP accumulation, 30-min stimulation, HEK293T, + FLAG-RAMP3; pEC50 stood at 12.8 pEC50; the cAMP accumulation, 30-min stimulation, HEK293T, receptor alone; pEC50 turned out to be 13.1 pEC50.

As for “glucose-dependent insulinotropic polypeptide [GIP]”, the “effect of RAMP3 siRNA on cAMP accumulation” value in the assay on GIPR is on record as “no effect”. In addition, the “effect of RAMP3 knockdown on insulin secretion” value in the assay on Min6 B1 cells was “unaffected”. Besides, in the assay with INS-1 832/3 cells [2], the “effect of RAMP1 transfection on insulin secretion” value is reported as “increased insulin secretion” and the “effect of RAMP3 transfection on insulin secretion” value is recorded as “increased insulin secretion”.

With `Nc1ncnc2c1nc(Br)n2C1OC2COP(O)(=S)OC2C1O` (stereo not shown) [Rp-8-Br-cAMPs], in the assay with INS-1 832/3 cells [3], the “effect of inhibitor on GLP-1-mediated insulin secretion” value was “no effect; also recorded: unaffected”.

On to `CC(C)(C)c1cc(C(=O)/C(C#N)=N/Nc2cccc(Cl)c2)no1` [ESI-09], for which the “effect of inhibitor on GLP-1-mediated insulin secretion” value in the assay on INS-1 832/3 cells [3] is given as “significantly decreased; also recorded: significantly reduced insulin secretion”.

Regarding `NCCCC[C@H](NC(=O)[C@@H](Cc1cc(Br)c(O)c(Br)c1)NC(=O)N1CCC(N2Cc3ccccc3NC2=O)CC1)C(=O)N1CCN(c2ccncc2)CC1` [BIBN 4096 BS], in the assay with CLR–RAMP1, the “disruption of receptor–RAMP interaction” value was “disrupt the interaction”.

Turning to `C=C1C(=O)NC(C)C(=O)N(C)C(C)C(=O)NC(C(OC(=O)C(NC(C)=O)C(O)C(C)C)C(C)C)C(=O)N(C)C(C(C)OC)C(=O)OC(C)C(NC(C)=O)C(=O)OC(Cc2ccccc2)C(=O)N1C` (stereo not shown) [YM-254890] (Ac-T[PhLac][NMeDha]A[NMeA][X1][NMeT](Me); ester 1-C; configuration not given here), the “effect of inhibitor on GLP-1-mediated insulin secretion, RAMP3 vs vector” value in the assay with INS-1 832/3 cells [3] (YM-254890 100 nM, PTX 0.2 ng/μl) is “decreased insulin secretion significantly only when RAMP3 was overexpressed; also recorded: only reduced insulin secretion in cells overexpressing RAMP3”.

On to Semaglutide, for which the “protection against neurodegeneration and neuroinflammation” value in [4] was “protect against neurodegeneration and neuroinflammation”.

Take GLP-1 (9–36): the cAMP production entry on Nluc–GLP-1R [5] is “did not elicit sufficient cAMP production over the concentration range tested”. For the same molecule, the “(Ca^2+)i mobilization” value at Nluc–GLP-1R [6] was “unable to elicit any (Ca^2+)i mobilization”.
